Test results: a protein production outcome set (Wang et al. 2014)

Assay: label from the status in PepcDB records

Sequence	protein production
MNNQSVDVDLITRFDNEAKLHALDSVYAIAEFDLAGKLIEANPLFCKMLGYKKEDIIQKSHTLFLPEAQRQKHDHFWHDVIKGNINAGEFQRKTQKGDIIWLHAAYTPIIDHSGRRIGVIKLALDITQEKRLMSEHRAQLDAIENAQGVIEFDKDGYITHVNKHYLILTGYEAKEILGLHHKSLCDPIYTEQADYQTFWETLHRGHPISGRFHRLGKGNHSFWIQATYSPVMDSDGNVRKIIKYAHNITQNVETEKKAHQQGIILDILLSVHDSFLLDHNLPSACDKVFERLLDVTNSSFGFIATLQEDEDGQSLYLPAISNLAWDEETLTWYRHQRRTHGGLRLRKLDNLFGHVVTHNTVVCTNSLLRQKAGRDLPPIHPALHSLLGIPITHNGKTVGMIALANRREGYDQTMIELLAPLVKTLGIIIHARLLEDERTQIEASLRFNAGHDFLTGLPNRSSFFEQASAFFLLRQQNQHADKSCLAIIDIDLFKNINDQFGHLAGDAVLKELAMLMRMSLRQEDLVARIGGEEFIILLKDVPYQTAVMAIERIRKAIEQHTLEYDRQNLNFTISAGIAAYRSDLASVEDWIQLADENLYAAKRQGRNCVK	failed
MNNRPQLIYILPNLFTAASAFLGVISIIASIHGNYYTALIYIILSLICDGLDGRVARLTNSTSKFGVEFDSLADLVAFGVAPAVLFYMAIGYDFGKLGSLITAFFVVFGAIRLARFNVTTGTYEPSVFIGLPIPTAAVVSAIWTYAFISYDFLKPYGVVFLVLQAILGLLMVSNIRYPSFKKLDFNRSSVLKVLIILIIIFSFLYLYPLESLVILASLYVLYGIIRVLYTIIVSKFKIRNQE	failed
MNNSETPAPGPDSLLALAFPSDPQVSPDGKQVAFVLAQISEEDPAKPDKDFARPRYRSGLWLSEGGAARPLTHAETGRGDSAPRWSPDGQNLAFVRSAGEVKAALMLLPLKGGEARRVTHFKNGVSGPQWSPDGRFIAFTTTADTEDKRDERGEARVLTRPVYRANGADWLPERPAALWLYDVEADKLREWYAPEIGIGALSWWPDSRGVLIVQSEDEWQASQWRQDVYDLPLPTADAPAAPQKLLDWNSAAHGLAPHPDGQRFALIGRPAGKGNTEHAHLYLIENGQHRRLDTGHDHPVGDAVGGDCHVGAFPEGPRWLDGDTLLFSSTVRGSVGLFTAHIGGGVKAYDHDPQGVISAFTANEHGVALIRESATRFPEVELNGQRVTDLHARFPFPVREPQRVTFETELGEGEGWVLLPEGEQKVPALLNIHGGPHTDYGHGFTHEFQLMAARGYGVCYSNPRGSVGYGQAWVDAIYGRWGTVDADDLLNFFDRCLEAVPRLDAAKTAVMGGSYGGFMTNWITGHTTRFQAAITDRCISNLISFGGTSDIGLRFWDDELGLDFSRRADALKLWDLSPLQYVENVKTPTLIVHSVLDHRCPVEQAEQWYAALHKHQVPVRFVRFPEENHELSRSGRPDRRLTRLNEYFAWLERWL	failed
MNNSINHKFHHISRAEYQELLAVSRGDAVADYIIDNVSILDLINGGEISGPIVIKGRYIAGVGAEYTDAPALQRIDARGATAVPGFIDAHLHIESSMMTPVTFETATLPRGLTTVICDPHEIVNVMGEAGFAWFARCAEQARQNQYLQVSSCVPALEGCDVNGASFTLEQMLAWRDHPQVTGLAEMMDYPGVISGQNALLDKLDAFRHLTLDGHCPGLGGKELNAYITAGIENCHESYQLEEGRRKLQLGMSLMIREGSAARNLNALAPLINEFNSPQCMLCTDDRNPWEIAHEGHIDALIRRLIEQHNVPLHVAYRVASWSTARHFGLNHLGLLAPGKQADIVLLSDARKVTVQQVLVKGEPIDAQTLQAEESARLAQSAPPYGNTIARQPVSASDFALQFTPGKRYRVIDVIHNELITHSHSSVYSENGFDRDDVSFIAVLERYGQRLAPACGLLGGFGLNEGALAATVSHDSHNIVVIGRSAEEMALAVNQVIQDGGGLCVVRNGQVQSHLPLPIAGLMSTDTAQSLAEQIDALKAAARECGPLPDEPFIQMAFLSLPVIPALKLTSQGLFDGEKFAFTTLEVTELEHHHHHH	not failed
MNNVSEERVAEMIWDAVSEGATLKDVHGIPQDMMDGLYAHAYEFYNQGRLDEAETFFRFLCIYDFYNPDYTMGLAAVCQLKKQFQKACDLYAVAFTLLKNDYRPVFFTGQCQLLMRKAAKARQCFELVNERTEDESLRAKALVYLEALKTAETEQHSEQEKELEHHHHHH	not failed
MNNVSTRAPVRGTKTSLTLPNILTYARIAAIPVVVGCIFAQSILGGPLALRWVALAVFIAAAITDFLDGHFARIWDQQSAFGRMLDPIADKLLVASCLLMLAADSIIHGWTLWAAIVILCREILVSGLREYLAALRVSVPVTRLAKWKTTAQLVAIGFLLAGEAGDEVLPFTTEIGVSLLWLSALLTMYTGYDYFRAGIHHLIEEDQA	failed
MNPADVTQLAPAVSTDVSLLSLFWHAHWVVKSIMLGLLGCSVWVWAIAIDKLLLFSRTKRAMDRFEQAFWSGESIDELYRALSAKPTHSMAACFVAAMREWKRSFESHSRSFAGLQMRIEKVMNVSIAREVERLERRLLVLATVGSAGPFVGLFGTVWGIMSSFQSIAASKNTSLAVVAPGIAEALFATAIGLIAAIPATIFYNKFTSEVNRQTQRLEGFADEFSAILSRQIDERT	failed
MNPALVALGLTLFAGMATGIGSAIAFFARRTNFRFLSVATGFSAGVMVYVSFVEILPKGLDSLVRSCGESWGHWLNAASFFGGMLCIGLIDAVIPAAKNPHEIHADHEIAPLHDRSAPLPDFGSLAADPRCAPTGTHDHRPPQRHLLRMGLFTALAITIHNFPEGMATFLAALESPRVGAAIAVAIALHNIPEGVSVSVPIFYATGNRRKAFALSLLSGMAEPVGAAIGYLALLLFSGGASGAIPDQVTGALFGGVAGIMVYISLDELLPASRAYGKGHDSLLGLVGGMAVMALSLLLMK	failed
MNPCGIQRYQTQMYTQVSYDFRLSWSSGKRSASGFEAVGGAKMAEEKLGMKTQVPASIESQKPRPKKAPEFPIVEKLNWLIHLYYIRKDYEACKAVIKEQLQETQGLCEYAIYVQALIFRLEGNIQESLELFQTCAVLSPQCADNLKQVARSLFLLGKHKAATEVYNEAAKLNQKDWEICHNLGVCYTYLKQFSKAQDQLHSALQLNKHDLTYIMLGKIHLLQGDLDKAIEIYKKAVEFSPENTELLTTLGLLYLQLGVYQKAFEHLGNALTYDPANYKAILAAGSMMQTHGDFDVALTKYRVVACAIPESPPLWNNIGMCFFGKKKYVAAISCLKRANYLAPFDWKILYNLGLVHLTMQQYASAFHFLSAAINFQPKMGELYMLLAVALTNLEDIENAKRAYVEAVRLDKCNPLVNLNYAVLLYNQGEKKGALAQYQEMEKKVHFLKDNNPLEFDSEMVEMAQKLGAALQVGEALVWTKPVKDPKSKHRTNSGSKSATLQQPLGSFQALGQAMSSAAAHRKIPSGAVGAQLTKPPSLPLEPEPEPTVEASPTEASEQNKEK	failed
MNPFKNFETRQVLEETCEVHGCQLWLTKVPIKGRLEELKQCPECTKAAINIFENKLNSQSKINSKLADTYAVFERDSLVSDKLRAKSLENYEIKDEIDQHAINYAKRMEQFYRQDRTGNAIITGPSGVGKSHLTYGLAKFMNEQFKAYESPKSVLFISLVSLFTKIKESFKVDNGYRQADMIELLTRVDYLFLDDLGKESRKGDSQNNEWTHQILYEILDNRSNTIINTNLSSKEIKALYADNYGNGALSSRILEGVTGNSFAYPKDMEDRRY	failed
MNPLHLAAAFASGCLLTLMVHFNGQLAHYGNALFSSWTAHGTGTVAALIYLAIMRPKKDAAAPAKPNAPLWAYCGGVVGAAIVILTSTAVNSPLALSGTIALGLGGQVIFSLLADLFGLFGLPKRRPDVQDMVAVCLILCGSALIILVGRAA	failed
MNPTFHADKPIYSQISDWMKKQMITGEWKGEDKLPSVREMGVKLAVNPNTVSRAYQELERAGYIYAKRGMGSFVTSDKALFDQLKKELADAITERFLEEAKSIGLDDQTAIELLIKRSRNHE	not failed
MNQHLLGNPKLTVTHVNEVKAGINHIVVDSVQYGNQEMIMEKDGTVEMRDGEKLYINIFRPNKDGKFPVVMSADTYGKDNKPKITNMGALWPTLGTIPTSSFTPEESPDPGFWVPNDYVVVKVALRGSDKSKGVLSPWSKREAEDYYEVIEWAANQSWSNGNIGTNGVSYLAVTQWWVASLNPPHLKAMIPWEGLNDMYREVAFHGGIPDTGFYRFWTQGIFARWTDNPNIEDLIQAQQEHPLFDDFWKQRQVPLSQIKTPLLTCASWSTQGLHNRGSFEGFKQAASEEKWLYVHGRKEWESYYARENLERQKSFFDFYLKEENNDWKDTPHVIYEVRDQFYKGEFKSASAFPLPNAEYTPLYLNAENHTLNHAKISSAHVAQYDSEDKQQDVSFKYTFDKDTELVGNMNLKLWVSTKDSDDMDLFAGIKKLDRRGNEVNFPDFNHIENGQVATGWLRVSHRELDQEKSSIAQPWHKHETELKLSQDEIVPVEIELLPSGTLFKQGETLEVVVKGSEIVIGNSTPGMKTRYEHEETVNKGMHMIYTGGKYDSQLIIPIVN	not failed
MNQIAPRRFSGLRIVLLVLLAVLAFLLLMPTRVQPVAWNPAPAPSLSQGPFAENQKLKAVQPVGARDIDGPEALLLEHEQLLSGLHDGRVIQSSLDGSALKVLVNTGGRPLGLARHPDGRLIIADAIKGLLALDSQGQLQTLSTEANGLKFGFTDDVAVDAAGRYAYFSDATSRWGYGHDGEAVIEHGADGRLLRYDFQSGTTEVLLDRLEFANGIALGPDEAYVLVNETGAYRISRYWLKGDKAGSHDLFIDNLPGLPDNLSFNGAGRFWVALYAPRNPLLDATAPYPFVRKMLVRAMTVLPKPVEKRGFVLGLDTQGRVIANLQDGSSGNYSPITTVREYGDALYLGSLTARHMARLSLKEALAP	failed
MNQKISPPSQKLDGLFLLALSMAVFFVGVTEFMLSSMLGPLAQAFHTTTSGAAWLISSYAFSYAIAAPLLGYFSDRMQRRKLLLLALVLFAVDTLAIVIAPTLEIAVVLRVIGGIASAIIIPTTFALVAEVVAPQRQAGAMGQVMLGMTLGIAAGPALAGLLSDFFGWAAPFLLVSCGCVLVFLMARQRLPVQAVAPRAEGHALGWCRQWSILRPLIAKGAWNGTGVAGLLLSGEVLRQRYGFSTAQIGVSIAAFGVGLAVGNLAAGYLRRYLKRDEDMLLLVLALLVLSMSTFMLLPLPLPVALCCLGAWGAALGLGAPAGTVVLASRSGPDKGMVLSFAETFNNIAILASVPLAVRLLELKGPPATLWVLGIGLGIGAWFTVLDWFASRRSNEALPLRD	failed
MNQKMIIGNAEAICLPELGITHLEARIDTGAQTSSLHVDNIDCFEKDGQSYVAFDLHPDVYHLEQVVRCTAKLKANRKVKSSNGTFEHRCVITTMLRLGDQEWPIDITLTNREKMTYMMLLGRQGMADKVLVDPSQSHLLAS	not failed
MNQLIFDFAAHDYPSFDKFLGTENAELVYVLRHKHGQFIYVWGEEGAGKSHLLQAWVAQALEAGKNAAYIDAASMPLTDAAFEAEYLAVDQVEKLGNEEQALLFSIFNRFRNSGKGFLLLGSEYTPQQLVIREDLRTRMAYCLVYEVKPLTDQEKIDALASMAAARQVTVDSEIFEYLLKHWRRDMDSLMMMLDTLDNYAVTMGKRITLPLLRQLLKQQETQLEHHHHHH	not failed
MNQSPSILRKTRKGEYMAFADLAAEKTQGVDYDFLVLDRASAVAIVAPHGGWIEHGTSELATAVAGDDFSLYLFEGLKPKRPHSELHIPSEYFDENRCVDLVSRARIVIGMHGRADGDDPETIWLGGLGKELRDAIAAALEAAGFKAITSGHRLPGEHKNNICNRGINQAGVQLEPCRWSNRCLSATETHSTSATTAIISRLSIAA	failed
MNQTSSHSSLFSSSLPPVPDRPLSPSGRFNRLSYLAWYGFINLIGLMCLFGTGLIMGIFSLSQVTWDDQLLNALSGSFGFIMFGISILFFYFHVVLMIRRLHDTNRSGWWCLLFFVPVIQFILILYLLFIPGSKASNDYGIPRPSPVWEKILGWMIVIVLLLSLLMLGRLVSFMLGTGHLDFPQELIPKNTGYF	failed
